# Assay results reported in the DeepSol protein solubility set.
# Experiment: soluble on expression in E. coli; label from the status in PepcDB or PDB records
row,Sequence,soluble on expression in E. coli
1,MSLAEPIESGKQYVELTSAVPVAVPGKIEVIELFWYGCPHCYAFEPTINPWVEKLPSDVNFVRIPAMFGGPWDAHGQLFITLDTMGVEHKVHAAVFEAIQKGGKRLTDKNDMADFVATQGVNKDDFLKTFDSFAVKGKIAQYKELAKKYEVTGVPTMIVNGKYRFDLGSAGGPEKTLQVADQLIDKERAAAKAEGHHHHHH,soluble
2,MTASKIPIKKVCEHCKQEFIALKTTTKYCSHRCNSRAYKAQKREERVRRTELSEQEKKVSDIIDKPYLSISEAGRLLGISRHTIYRYIYSGNLKAYNLSSQRSIVKREDIERMLAERPYEKRQPRDAIVITELYTTDEVCDIHNISRSSLFAIAKRENIPRTYNRGKTYWSKRHIDAYFAKQAPASHIEEWCTAVEIQERFDMTLTAVYNFISDHNIPRKKVKGKSYYSTKHVEAAKGVLDKAAPSYYTVREAMEKFGLTRDQLYQYTKRYNVPKLKQGRNVLISQQELDEVLKPPSITR,not soluble
3,MVQDQIRYDILVQDALRGVIRKVLSEVAKAGLPGSHHFFITFLTNAPGVKISTRLKSRYPEQMTIVLQHQFRDLNVSETAFEVTLSFREVSEKLVIPFHSIQVFYDPVAAFEAAFDLPSNLNSKEGENLENIASTPVILSDTQKKEKKFPKEQISKTNKDSSNNDTKQSADVVSLDSFRKKLEHHHHHH,soluble
4,MAHHHHHHMPIHQYEGWSYERLRQQRNRAHFLLEDPYRYVTVLLISKPGRPEELKCIDSPCYHAAGPLGEGDIVEIEDLLCLRCPWHRYLVNIENGEEILLRVDPASAQGAGIVGRQAALPTYPMHFTDPSAEGVTVVHGEKVQRVHRAWLEEATGILSIEVAEEAVMRQHPVKSDKPAGNVKNGGICMQIFDIKLRGLDKL,not soluble
5,MKKYFLGDQPTTLDASAFGFLINTIACPIESPLKEYGLSKENLGDYIDRIKMQYYPDLQLEHHHHHH,not soluble
6,MKKFFLFLVLPIFLFASPLKAVFDCAVGDLDWISLRLSLIKKTAEQLMEEGKSYRFVITIHSHCIKVVDADLKKFPESERRKIELIQSQLKTLKEMYSVDVKACQIAMNRGKIKKVPPFVETVPNSWITLIELQNKGFAFVPF,not soluble
7,MAGDYSYDAVKREYVIGSDMTSYAHEVFAAAKPMDIRHNDLPQPDSVIDVTVSTTEWPEGDSNYPINPKLVFTNHSNVAIPGGSTIEFLMPTSSGDIVKDWSGAGLKVIESGHTGSNFSVNGEKKLFHKVAVTLRSTETIPAGGEYSVDMVYYTPVSGVANGVRFIVGNETVGLKKDFPTLPALEHHHHHH,soluble
8,MAHHHHHHMYPKNELQVLNILYIIIYSFFVDEEIDNIKDETQEIQAYNYTSLMIPSDVSSENNSDTKHFSVVTISFFILYSENIKQVLNLQESIDIQKIKEKKEKKKKQEVFKDIMCSDIKYEKKIKRKKKKIFENKRSSKKNKNNIRDFINLEKDIIITKTLMYNKKKKLDDIYKYTSKKEKTINNLNKNMIKEAAHMQELLIENFKKTEDLIKVRRGGGKIKKKEKTQRIYIHIYIHIYIHI,not soluble
9,MKKVGVVIPIYNVEKYLKECLDSVINQTYTNLEIILVNDGSTDENSLNIAKEYTLKDKRIILFDKKNGGLSSARNVGIEYFSGEYETQYIEKENELNVFKIIGDNPQNIYKIYKYKNALASDKLEISKIDYIIFLDSDNYWELNCIEECVVRMQNVDVLWFDHACIYDDGIEDKGQKTRMNVFNFTQECTITPRDYAKQAIKVGSRDISFSWGGMIDFSFLKQLKLKFINKIINEDIHFGMVLFASADSIYILPKRLYLCRLRANSISNHDKKVTKANVSEYFKDLYEFFGENAKEAKNYLKAASRMITALELIEFFKDQKNENSQAIKEAFLPFYVKKALMIKKFKKDPLNLKEKLPIIKPFIQTKIPYDLWKIWQKIKGILDKINFAK,soluble
10,METETDDSETSLNDSFGNKDGLELLEYERATLAKTLPASVLFVVANGLGLERLFLEHLILFSDRRLLALVLNTNEHDESYFVSKLKEHNVECDPKVINSEVSIKDRQSIYLEGGVQFCSSRVLLVDLLQNRIPTDRIAAIFVYRAHQTLNAFQDSFILRLYREKKPDGTVKAFTDFPNSLSSLGQLQRLVDRLYIRHVELMPRFSSIIESELNRYQLKTAIFSVDVPTPLRRVHRTIIEFIKVCVRDLRTCSTSGKQTDEQNEEMIHVPWAATRLEKRLHDRRGHISEKQQRLLNDVASLREILQLSENMDVATVLSRLQVLKNDRTVLEEHSGWLLSPSFNRIMEDLLTIAGVTNGKADYKKFATPAKWTVLSEILREIKMLPVEKKDRGNDSPSVLVITSSEDLSRQVTDVVRYGINKMKWMTWRQLGYKSTQEMPEDEPLWDPDTISQLMRSSVDGESKSEVIANVQKTQKTTARAAQKRRKHAEELSGFSSDHRVQTNLIQFGILQYKRRKSGNEASTSQETTEWEVKEEMEEIEEITKNIGDLEAELVVSTTRERERYTLLKLLETKKPRAIVLYTMSLQTLRQIEIYRSTNPNRSLHVYWLQYTESTEESRYLESINRETMSFELLIREQGTLLISREFNVDREDAPRLKISTRDGGGARRDGAVDPRDQMDPEEELERPKIIVDMREFNSELPTVLYTKGYNVVATTIEIGDYILSPNIAIERKALDDLTQSLQSGRVFKQIEQMLEHYDCTVLLIESNRKFETKIVNGGPFQGELSRHCREIRSIFCSLIWANPKMRCVWTISPTNSAEFFSELKLSAPEPDVDRAISLKADQVECSSQELTDSEASTSTKAKKGKKWKPNPTVIRTLTQIFGIKASEAHNLLANSSIKTLADLFSLNITASHLSDFIPSTSADFIKDLSTFNFGRK,not soluble
11,MSLSGTITFSTGTRAGVYQKYGELLRTELRKDMPGLDVRLMTSAGSQENVERVASGEADFTIAAADAVETYKLAGSPGAEGLRGVTRLYDDYVQLVVPSDSDIQSVRDLRGKRVAIGLPNSGVRLIATRLLKAVGIDPETDITPRADGIDTGPGRLGDELDAFFWSGGVPTDGLKEIAESSAFRFVPIGDDLVTKLHRSGGATRYYRTTNMPESAYPTVQNGAVVPTMAVSNLLVTRADVDPRLTEWLTRTVLDSRDGIGAHVHSAQLVDLRTAIYTDPLELHEGARRYYRSVKEGHHHHHH,soluble
12,MKLLQRGVALALLTTFTLASETALAYEQDKTYKITVLHTNDHHGHFWRNEYGEYGLAAQKTLVDGIRKEVAAEGGSVLLLSGGDINTGVPESDLQDAEPDFRGMNLVGYDAMAIGNHEFDNPLTVLRQQEKWAKFPLLSANIYQKSTGERLFKPWALFKRQDLKIAVIGLTTDDTAKIGNPEYFTDIEFRKPADEAKLVIQELQQTEKPDIIIAATHMGHYDNGEHGSNAPGDVEMARALPAGSLAMIVGGHSQDPVCMAAENKKQVDYVPGTPCKPDQQNGIWIVQAHEWGKYVGRADFEFRNGEMKMVNYQLIPVNLKKKVTWEDGKSERVLYTPEIAENQQMISLLSPFQNKGKAQLEVKIGETNGRLEGDRDKVRFVQTNMGRLILAAQMDRTGADFAVMSGGGIRDSIEAGDISYKNVLKVQPFGNVVVYADMTGKEVIDYLTAVAQMKPDSGAYPQFANVSFVAKDGKLNDLKIKGEPVDPAKTYRMATLNFNATGGDGYPRLDNKPGYVNTGFIDAEVLKAYIQKSSPLDVSVYEPKGEVSWQ,soluble
13,VKTILFFILIFNSQYMSKRIGVAVVGLGSIGKTHVKALKDLEKETEFVKLVAVVDQIKAIAEKIGSEYGTPYYTTIDEVLRNSEVDVISIATPSYLHAPQAILAIEYGKHVIVEKPMATTLAGAREMVSRAERNEVKLGVIFQERYAPDIRRLKNDILKELGRIYLIESELKWYRDMKGYYKRDEIARSWRGMWNTEGGGVMTNQGIHTIDLMIWLNGEVEEVSGFVDNLTHDGIEVEDTAVAIMRYKNGALGTISQTVSMKPTTYQYRKIRVNGSNGFVEITDGSLSTVAIEGKIEESKSSVEYKKETIAQPGNLHKELLRDFLRALSEDNDFPINGKEGMKSLEVIKAVYLSSVNRQVVKLPLDVRIVV,soluble
14,MKTVILIGALGKMGQAALTGLSKHKVITAGRSGNVDHLVDITNENSIRALYEKVGHFDAVVNTVGFCEYATFAEMTEAQWMTTVMSKMMGQINLVRIGQEYIADKGSFTLISGILNVKPIPCAIADATTSGAIDTFVKCVAYEMQRGTRINVVNPTVLTEAWDVYGDMMPGFEPVPSTLVGKAFERSVDGFINGEVLFVDALEHHHHHH,soluble
15,GMTQQTDLQSKTNIDPLAMNDSFLAAADALAVDPMFGIPANVREVIARRGNATRLVILGTKGFGAHLMNVRHERPCEVIAAVDDFRYHSGELYYGLPIISTDRFTELATHDRDLVALNTCRYDGPKRFFDQICRTHGIPHLNFEQAVRAFGLQGNVDYRVDDWGADIVRNIPAFQTLAQRLADDYSVQTLYAVLNFHLTCEPEYYHEVERPYSTLYFRSGLLRFSDSEKMVDCGASIGESLAGLIGVTKGKFERVWMIEPDRINLQTLQNVLRRYTDTNFASRITVHGCGAGENTIRVPFNHEGGHGGFVKPADADHEPADLIDVRPIDDIIDDAPTFIKMDIEGSELSALKGARRAISEHKPKLAISAYHRSTDLLDLTNYILSIRPDYQIGLRHHTPDRWDTCLYFY,soluble
16,MGSDKIHHHHHHMNHLVEVQHMERMNRTNHIQKLDKERYLNLKTGEIGEFKQGEVRSDSLNSLRQTFKKLRYLINTNYVGAGNELFITLTYKENMTDVKRLYSDFKKFMLKFRYKYEKQYGSIDYMTVVEPQERGAWHHHLLVRFNDMTGSKMYIPNNDVAALWGHGFTNMHSLNGVDNIGAYLSAYLADVELTTDNVFLAFDDNVEVVSKVVDGQEKKFIKGGRLHLYPSGMNLYRKSKGIKMPVREEMRYGDIKKVVGSEKPHYVKTLVVEQDDFKNTITYEQYNTKR,not soluble
17,MAQEIELKFIVNHSAVEALRDHLNTLGGEHHDPVQLLNIYYETPDNWLRGHDMGLRIRGENGRYEMTMKVAGRVTGGLHQRPEYNVALSEPTLDLAQLPTEVWPNGELPADLASRVQPLFSTDFYREKWLVAVDGSQIEIALDQGEVKAGEFAEPICELELELLSGDTRAVLKLANQLVSQTGLRQGSLSKAARGYHLAQGNPAREIKPTTILHVAAKADVEQGLEAALELALAQWQYHEELWVRGNDAAKEQVLAAISLVRHTLMLFGGIVPRKASTHLRDLLTQCEATIASAVSAVTAVYSTETAMAKLALTEWLVSKAWQPFLDAKAQGKISDSFKRFADIHLSRHAAELKSVFCQPLGDRYRDQLPRLTRDIDSILLLAGYYDPVVAQAWLENWQGLHHAIATGQRIEIEHFRNEANNQEPFWLHSGKR,soluble
18,MSKLVYLLLMIFFLNPAWANTHYHQHPVSPLANALRTGTDTNGNALYLCRAKLFNSIQPGKTWAGYGRCNVPYGGKEYVLSQFTIPNQNEFGRYSWEPNVEHALLMGKDTNGNPLFVCQSNFNGSIQPGKTWPGYSHCNISYGGREIITDNYRILSRPTEIIVRTQPPVHRHPSQNRHYHYLEHHHHHH,soluble
19,MDNGDWGYMMTDPVTLNVGGHLYTTSLTTLTRYPDSMLGAMFGGDFPTARDPQGNYFIDRDGPLFRYVLNFLRTSELTLPLDFKEFDLLRKEADFYQIEPLIQCLNDPKPLYPMDTFEEVVELSSTRKLSKYSNPVAVIITQLTITTKVHSLLEGISNYFTKWNKHMMDTRDCQVSFTFGPCDYHQEVSLRVHLMEYITKQGFTIRNTRVHHMSERANENTVEHNWTFCRLARKTDD,not soluble
